The results in this text go back to the nanobody polyreactivity screen of Harvey et al. (2022).

A short description of this data set: yeast display, Sf9 membrane polyspecificity reagent, FACS + sequencing; frameworks hold sequencing errors. In short, it runs like this:
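Nanobodies came from a synthetic yeast display library in Saccharomyces cerevisiae BJ5465, induced with galactose for 36–48 hours and stained for 1 hour at 4 °C with 10% biotinylated, detergent-solubilized Sf9 membrane reagent. Cells were enriched on streptavidin microbeads and then FACS-sorted, with low and high (top ~1%) gates set on anti-HA fluorescence for expression and streptavidin fluorescence for reagent binding. Each polyreactivity label reflects the gate a clone came from. Genes were amplified by colony PCR, sequenced by MiSeq 2 × 250 and filtered by CDR length.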
For the sequence “QVQLVESGGGLVQAGGSLRLSCAASGRTFQENGMGWYRQAPGKERELVATISQRGTSTYYADSVKGRFTISRDNAKNTVYLQMNSLKPEDTAVEYCARRRVYRWYTGDYWGQGTQVTVSS”, the “polyreactivity (PSR sort gate)” value is listed as “low polyreactivity”.

On to “QVQLVESGGGLVQAGGSLRLSCAASGRTFQEYAMGWYRQAPGKERELVADISDGGSTNYADSVKGRFTISRDNAKNTVYLQMYRLKPEDTAVYYCAADQYHGVGINFRSDYDYWGQGTQVTVSS”, for which the “polyreactivity (PSR sort gate)” value is “low polyreactivity”.

As to “QVQLVESGGGLVQAGGSLRLSCAASGRTFQKYAMGWYRQAPGKERELVAAITGSGGSTYYADSVKGRFTISRDIAKYTVYLQMNSLKPEDTAVYYCAAYAYGVWHSQDGGNYWGQGTLVTVSS”, the “polyreactivity (PSR sort gate)” value is reported as “low polyreactivity”.

“QVQLVESGGGLVQAGGSLRLSCAASGRTFQNYAMGWYRQAPGKERELVADITSGGSTYADSVKGRFTMSRDNAKNTVYLQMNSLKPEDTAVYYCNADRTYPEPAEYYYWGQGTQVTVSS”: the “polyreactivity (PSR sort gate)” value is on record as “low polyreactivity”.

As for “QVQLVESGGGLVQAGGSLRLSCAASGRTFQPNVMGLFRQEPGKESELVAAISWSGASTYYADSVKGRFTISRDNAKNTVYLQMNSLKPEDTSVYYCAAEFPFPPACDYWGQGTQVTVSS”, the “polyreactivity (PSR sort gate)” value is “low polyreactivity”.

Take “QVQLVESGGGLVQAGGSLRLSCAASGRTFQRYALGWYRQAPGKERELVAAITSRGGSTYYADSVKGRFTISRDNAKNTDYLQMNSLIPEETAVYYCSARSRRTHSEPQSEMDYWGQGTQVTVSS”: the “polyreactivity (PSR sort gate)” value is reported as “high polyreactivity”.

In the case of “QVQLVESGGGLVQAGGSLRLSCAASGRTFQRYAMGWYRQAPGKERELVAAITSGSRTNYADSVKGRFTSSRDNAKNTVYLQMNSLKPEDTAVYYCAADYTWRNNYCGQGTQVTVSS”, the “polyreactivity (PSR sort gate)” value is “high polyreactivity”.

“QVQLVESGGGLVQAGGSLRLSCAASGRTFQTNDMGWYRQAPGKERELVAAISRRGGSTYYADSVKGRFTISRDNAKNTVYLQMNSLKPEDTAVYYCAATRLSRYEYWGQGTQVTVSS”: the “polyreactivity (PSR sort gate)” value is reported as “low polyreactivity”.

On to “QVQLVESGGGLVQAGGSLRLSCAASGRTFQTYAMGWYRQAPGTERELVAAISSDGSTYYADSVKGRFTISRDNATNTVYFQMHSLKPEDTAVYYRNTAIGDKYDYHVRVDYEYWGQGTQVTLSS”, for which the “polyreactivity (PSR sort gate)” value is reported as “low polyreactivity”.

Turning to “QVQLVESGGGLVQAGGSLRLSCAASGRTFQYNAMGWNRQAPGKERELVAAISWSDGITYYADSVKGRFTISRDNAKNTVFLQMNSLKPEDTAVYYCAAEGYGLSYYFPYDYWGQGTQVTVSS”, the “polyreactivity (PSR sort gate)” value was “high polyreactivity”.

With “QVQLVESGGGLVQAGGSLRLSCAASGRTFQYNAMGWNTQAPGKERELVAAISSGGSTYYADSVKGRFTISRDNAKNTVYLQMNSLKPEDTAVYYCNAVTGYQHVKYRYYYWGQGTQVTVSS”, the “polyreactivity (PSR sort gate)” value is on record as “low polyreactivity”.

“QVQLVESGGGLVQAGGSLRLSCAASGRTFQYYAMGWYRQAPGKERELVAAISGIGTSTSYADSVKGRFTISRDNAKNTVYLQMNSLKPEDTAVYYCAARLLVPCSPWYTNYYWGQGTQVTVSS”: the “polyreactivity (PSR sort gate)” value is “low polyreactivity”.

As to “QVQLVESGGGLVQAGGSLRLSCAASGRTFQYYAMGWYRQAPGKERELVAAISGIGTSTSYADSVKGRFTISRDNAKNTVYLQMNSLKPEDTAVYYCAARLLVPGSPWYTNYYWGQGTQVTVSS”, the “polyreactivity (PSR sort gate)” value was “low polyreactivity”.

As for “QVQLVESGGGLVQAGGSLRLSCAASGRTFQYYAMGWYRQAPGKERELVAAITWSGTSTYYADSVKGRFTISRDNAKNTVYLQMNSLKPEDTAVYYCNKYSPYITYDYDYWGQGTQVTVSS”, the “polyreactivity (PSR sort gate)” value is “high polyreactivity”.

As for “QVQLVESGGGLVQAGGSLRLSCAASGRTFQYYAMGWYRQAPGKERELVATISYSGGSTSYADSVKGRFTISRDNAKNTVYLQMNSLKPEDTAVYYCAADYYYGDALSPSYPHWDFYYWGQGTQVTVSS”, the “polyreactivity (PSR sort gate)” value is reported as “low polyreactivity”.

Turning to “QVQLVESGGGLVQAGGSLRLSCAASGRTFRAYAMGWYRQAPGKERELVAAITGGGSTKYADSVKGRFTISRDNAKNTVYLQMNSLKPEETAVYYCAATGRSGVLSSYYYWGQGTQVTVSS”, the “polyreactivity (PSR sort gate)” value is on record as “high polyreactivity”.
